Measurements taken from the Human Domainome abundance scans (Beltran et al. 2025).
± gives the uncertainty stated by the source.

B1: Syntaxin-binding protein 4, residues 493 to 538; numbered along this chain, Q6ZWJ1 (parent)
chain: LDMDCLPYGWEEAYTADGIKYFINHVTQTTSWIHPVMSVLNLSRSE
B2: KAT8 regulatory NSL complex subunit 2, residues 28 to 91; numbered along this chain, Q9H9L4 (parent)
chain: CAFTHRPCSHPRLEGQEFCIKHILEDKNAPFKQCSYISTKNGKRCPNAAPKPEKKDGVSFCAEH

Variants of: B1
Assay: abundance fitness (aPCA) (normalised: wild type 0, dead -1); higher = more abundant; growth selection in yeast, the domain comes from the species named
Settings: Homo sapiens

Variant	abundance fitness
N41H	-0.681 ± 0.2
N41L	-0.684 ± 0.1
N41W	-0.197 ± 0.093
N41V	-0.694 ± 0.098
N41R	-0.493 ± 0.096
N41T	-0.23 ± 0.12
N41S	-0.227 ± 0.09
N41E	-0.227 ± 0.1
N41K	-0.635 ± 0.15
N41Q	-0.514 ± 0.14
N41C	-0.236 ± 0.14
N41D	0.174 ± 0.12
N41G	-0.215 ± 0.083
N41A	-0.313 ± 0.087
N41M	-0.403 ± 0.11
N41P	-0.38 ± 0.11
N41F	-1.02 ± 0.2
L42N	0.578 ± 0.12
L42H	0.52 ± 0.14
L42R	0.108 ± 0.085
L42D	0.022 ± 0.14
L42P	-0.304 ± 0.14

Variant	abundance fitness
L42T	0.048 ± 0.12
L42C	0.025 ± 0.12
L42G	0.174 ± 0.077
L42V	0.052 ± 0.081
L42M	-0.046 ± 0.11
L42Y	-0.876 ± 0.21
L42K	0.16 ± 0.12
L42S	0.162 ± 0.095
L42A	-0.05 ± 0.088
L42W	-0.292 ± 0.1
L42E	0.198 ± 0.1
S45A	-0.186 ± 0.11
S45E	0.092 ± 0.18
S45K	-0.169 ± 0.18
S45F	-0.759 ± 0.18
S45Y	-0.287 ± 0.13
S45R	-0.173 ± 0.11
S45L	-0.509 ± 0.11
S45Q	-0.32 ± 0.2
S45H	-0.438 ± 0.16
S45T	-0.089 ± 0.11
S45D	-0.06 ± 0.14

Variant	abundance fitness
S45V	-0.103 ± 0.11
S45P	-0.127 ± 0.15
S45M	-0.986 ± 0.29
S45W	-0.914 ± 0.22
L40S	0.139 ± 0.085
L40P	0.067 ± 0.11
L40I	-0.816 ± 0.16
L40Q	0.046 ± 0.11
L40V	-0.273 ± 0.096
L40N	0.04 ± 0.15
L40R	-0.003 ± 0.082
L40W	-0.136 ± 0.1
L40K	0.041 ± 0.11
L40T	-0.319 ± 0.11
L40Y	-0.584 ± 0.16
S43D	0.129 ± 0.12
S43K	-0.846 ± 0.23
S43Y	-0.876 ± 0.24
S43H	-0.021 ± 0.25
S43V	-0.44 ± 0.11
S43L	-0.698 ± 0.14
S43M	-0.75 ± 0.17

Variant	abundance fitness
S43T	-0.183 ± 0.14
S43W	-1 ± 0.16
S43E	0.119 ± 0.11
S43P	-0.064 ± 0.12
S43N	0.116 ± 0.16
S43R	-0.17 ± 0.094
S43F	-0.531 ± 0.12
S43C	-0.518 ± 0.13
S43I	-0.606 ± 0.16
S43A	-0.526 ± 0.11
S43Q	-0.732 ± 0.26
R44L	-0.512 ± 0.11
R44C	0.016 ± 0.11
R44G	0.377 ± 0.077
R44Y	-0.109 ± 0.14
R44S	0.096 ± 0.087
R44Q	-0.063 ± 0.13
R44I	-1.3 ± 0.33
R44A	-0.134 ± 0.098
R44W	-0.527 ± 0.15
R44K	-0.162 ± 0.14
R44N	-0.104 ± 0.14

Variant	abundance fitness
R44F	-0.881 ± 0.18
R44P	0.041 ± 0.12
R44V	-0.147 ± 0.085
R44T	-0.285 ± 0.13
R44H	-0.287 ± 0.15
R44E	0.376 ± 0.11
R44D	0.169 ± 0.12
R44M	-0.292 ± 0.15
E46R	-0.132 ± 0.2
E46V	-0.365 ± 0.19
E46C	0.486 ± 0.49
E46S	-0.582 ± 0.49
E46N	-0.139 ± 0.31
E46F	-0.308 ± 0.3
E46Q	0.008 ± 0.5
E46K	-0.478 ± 0.4
E46G	0.23 ± 0.12
E46L	-0.668 ± 0.37
E46D	-0.243 ± 0.13
E46A	-0.517 ± 0.18
E46T	-0.143 ± 0.24

Variants of: B2
Assay: as above
Settings: Homo sapiens

Variant	abundance fitness
CWFTHRPCSHPRLEGQEFCIKHILEDKNAPFKQCSYISTKNGKRCPNAAPKPEKKDGVSFCAEH [A2W]	-0.541 ± 0.059
CHFTHRPCSHPRLEGQEFCIKHILEDKNAPFKQCSYISTKNGKRCPNAAPKPEKKDGVSFCAEH [A2H]	-0.231 ± 0.1
CFFTHRPCSHPRLEGQEFCIKHILEDKNAPFKQCSYISTKNGKRCPNAAPKPEKKDGVSFCAEH [A2F]	-0.513 ± 0.14
CVFTHRPCSHPRLEGQEFCIKHILEDKNAPFKQCSYISTKNGKRCPNAAPKPEKKDGVSFCAEH [A2V]	-0.235 ± 0.051
CDFTHRPCSHPRLEGQEFCIKHILEDKNAPFKQCSYISTKNGKRCPNAAPKPEKKDGVSFCAEH [A2D]	-0.388 ± 0.13
CQFTHRPCSHPRLEGQEFCIKHILEDKNAPFKQCSYISTKNGKRCPNAAPKPEKKDGVSFCAEH [A2Q]	-0.186 ± 0.16
CNFTHRPCSHPRLEGQEFCIKHILEDKNAPFKQCSYISTKNGKRCPNAAPKPEKKDGVSFCAEH [A2N]	0.023 ± 0.17
CKFTHRPCSHPRLEGQEFCIKHILEDKNAPFKQCSYISTKNGKRCPNAAPKPEKKDGVSFCAEH [A2K]	-0.153 ± 0.14
CGFTHRPCSHPRLEGQEFCIKHILEDKNAPFKQCSYISTKNGKRCPNAAPKPEKKDGVSFCAEH [A2G]	-0.101 ± 0.055
CPFTHRPCSHPRLEGQEFCIKHILEDKNAPFKQCSYISTKNGKRCPNAAPKPEKKDGVSFCAEH [A2P]	-0.421 ± 0.084
CTFTHRPCSHPRLEGQEFCIKHILEDKNAPFKQCSYISTKNGKRCPNAAPKPEKKDGVSFCAEH [A2T]	-0.103 ± 0.056
CLFTHRPCSHPRLEGQEFCIKHILEDKNAPFKQCSYISTKNGKRCPNAAPKPEKKDGVSFCAEH [A2L]	-0.152 ± 0.069
CEFTHRPCSHPRLEGQEFCIKHILEDKNAPFKQCSYISTKNGKRCPNAAPKPEKKDGVSFCAEH [A2E]	-0.522 ± 0.1
CCFTHRPCSHPRLEGQEFCIKHILEDKNAPFKQCSYISTKNGKRCPNAAPKPEKKDGVSFCAEH [A2C]	-0.08 ± 0.093
CSFTHRPCSHPRLEGQEFCIKHILEDKNAPFKQCSYISTKNGKRCPNAAPKPEKKDGVSFCAEH [A2S]	-0.238 ± 0.088
CIFTHRPCSHPRLEGQEFCIKHILEDKNAPFKQCSYISTKNGKRCPNAAPKPEKKDGVSFCAEH [A2I]	-0.198 ± 0.13
CMFTHRPCSHPRLEGQEFCIKHILEDKNAPFKQCSYISTKNGKRCPNAAPKPEKKDGVSFCAEH [A2M]	-0.014 ± 0.082
CRFTHRPCSHPRLEGQEFCIKHILEDKNAPFKQCSYISTKNGKRCPNAAPKPEKKDGVSFCAEH [A2R]	-0.138 ± 0.076
CAYTHRPCSHPRLEGQEFCIKHILEDKNAPFKQCSYISTKNGKRCPNAAPKPEKKDGVSFCAEH [F3Y]	-0.151 ± 0.057

Variant	abundance fitness
CAATHRPCSHPRLEGQEFCIKHILEDKNAPFKQCSYISTKNGKRCPNAAPKPEKKDGVSFCAEH [F3A]	-0.318 ± 0.087
CACTHRPCSHPRLEGQEFCIKHILEDKNAPFKQCSYISTKNGKRCPNAAPKPEKKDGVSFCAEH [F3C]	-0.14 ± 0.077
CARTHRPCSHPRLEGQEFCIKHILEDKNAPFKQCSYISTKNGKRCPNAAPKPEKKDGVSFCAEH [F3R]	-0.174 ± 0.044
CAHTHRPCSHPRLEGQEFCIKHILEDKNAPFKQCSYISTKNGKRCPNAAPKPEKKDGVSFCAEH [F3H]	-0.026 ± 0.086
CAWTHRPCSHPRLEGQEFCIKHILEDKNAPFKQCSYISTKNGKRCPNAAPKPEKKDGVSFCAEH [F3W]	-0.161 ± 0.061
CAETHRPCSHPRLEGQEFCIKHILEDKNAPFKQCSYISTKNGKRCPNAAPKPEKKDGVSFCAEH [F3E]	-0.285 ± 0.085
CAKTHRPCSHPRLEGQEFCIKHILEDKNAPFKQCSYISTKNGKRCPNAAPKPEKKDGVSFCAEH [F3K]	-0.287 ± 0.15
CADTHRPCSHPRLEGQEFCIKHILEDKNAPFKQCSYISTKNGKRCPNAAPKPEKKDGVSFCAEH [F3D]	-0.255 ± 0.075
CALTHRPCSHPRLEGQEFCIKHILEDKNAPFKQCSYISTKNGKRCPNAAPKPEKKDGVSFCAEH [F3L]	-0.332 ± 0.049
CAGTHRPCSHPRLEGQEFCIKHILEDKNAPFKQCSYISTKNGKRCPNAAPKPEKKDGVSFCAEH [F3G]	-0.154 ± 0.064
CAPTHRPCSHPRLEGQEFCIKHILEDKNAPFKQCSYISTKNGKRCPNAAPKPEKKDGVSFCAEH [F3P]	-0.639 ± 0.074
CAQTHRPCSHPRLEGQEFCIKHILEDKNAPFKQCSYISTKNGKRCPNAAPKPEKKDGVSFCAEH [F3Q]	-0.28 ± 0.055
CANTHRPCSHPRLEGQEFCIKHILEDKNAPFKQCSYISTKNGKRCPNAAPKPEKKDGVSFCAEH [F3N]	-0.312 ± 0.1
CAMTHRPCSHPRLEGQEFCIKHILEDKNAPFKQCSYISTKNGKRCPNAAPKPEKKDGVSFCAEH [F3M]	-0.172 ± 0.085
CATTHRPCSHPRLEGQEFCIKHILEDKNAPFKQCSYISTKNGKRCPNAAPKPEKKDGVSFCAEH [F3T]	-0.083 ± 0.068
CAITHRPCSHPRLEGQEFCIKHILEDKNAPFKQCSYISTKNGKRCPNAAPKPEKKDGVSFCAEH [F3I]	0.033 ± 0.13
CAFFHRPCSHPRLEGQEFCIKHILEDKNAPFKQCSYISTKNGKRCPNAAPKPEKKDGVSFCAEH [T4F]	-0.181 ± 0.14
CAFGHRPCSHPRLEGQEFCIKHILEDKNAPFKQCSYISTKNGKRCPNAAPKPEKKDGVSFCAEH [T4G]	-0.394 ± 0.082
CAFHHRPCSHPRLEGQEFCIKHILEDKNAPFKQCSYISTKNGKRCPNAAPKPEKKDGVSFCAEH [T4H]	-0.128 ± 0.08

Variant	abundance fitness
CAFDHRPCSHPRLEGQEFCIKHILEDKNAPFKQCSYISTKNGKRCPNAAPKPEKKDGVSFCAEH [T4D]	-0.163 ± 0.1
CAFAHRPCSHPRLEGQEFCIKHILEDKNAPFKQCSYISTKNGKRCPNAAPKPEKKDGVSFCAEH [T4A]	-0.404 ± 0.064
CAFCHRPCSHPRLEGQEFCIKHILEDKNAPFKQCSYISTKNGKRCPNAAPKPEKKDGVSFCAEH [T4C]	-0.102 ± 0.2
CAFEHRPCSHPRLEGQEFCIKHILEDKNAPFKQCSYISTKNGKRCPNAAPKPEKKDGVSFCAEH [T4E]	-0.305 ± 0.076
AAFTHRPCSHPRLEGQEFCIKHILEDKNAPFKQCSYISTKNGKRCPNAAPKPEKKDGVSFCAEH [C1A]	-0.343 ± 0.27
WAFTHRPCSHPRLEGQEFCIKHILEDKNAPFKQCSYISTKNGKRCPNAAPKPEKKDGVSFCAEH [C1W]	-0.837 ± 0.12
KAFTHRPCSHPRLEGQEFCIKHILEDKNAPFKQCSYISTKNGKRCPNAAPKPEKKDGVSFCAEH [C1K]	-0.155 ± 0.15
EAFTHRPCSHPRLEGQEFCIKHILEDKNAPFKQCSYISTKNGKRCPNAAPKPEKKDGVSFCAEH [C1E]	-0.322 ± 0.09
VAFTHRPCSHPRLEGQEFCIKHILEDKNAPFKQCSYISTKNGKRCPNAAPKPEKKDGVSFCAEH [C1V]	-0.865 ± 0.094
MAFTHRPCSHPRLEGQEFCIKHILEDKNAPFKQCSYISTKNGKRCPNAAPKPEKKDGVSFCAEH [C1M]	-0.576 ± 0.16
LAFTHRPCSHPRLEGQEFCIKHILEDKNAPFKQCSYISTKNGKRCPNAAPKPEKKDGVSFCAEH [C1L]	-0.886 ± 0.14
TAFTHRPCSHPRLEGQEFCIKHILEDKNAPFKQCSYISTKNGKRCPNAAPKPEKKDGVSFCAEH [C1T]	-0.89 ± 0.29
RAFTHRPCSHPRLEGQEFCIKHILEDKNAPFKQCSYISTKNGKRCPNAAPKPEKKDGVSFCAEH [C1R]	-0.545 ± 0.14
GAFTHRPCSHPRLEGQEFCIKHILEDKNAPFKQCSYISTKNGKRCPNAAPKPEKKDGVSFCAEH [C1G]	-0.604 ± 0.15
SAFTHRPCSHPRLEGQEFCIKHILEDKNAPFKQCSYISTKNGKRCPNAAPKPEKKDGVSFCAEH [C1S]	-0.358 ± 0.072
YAFTHRPCSHPRLEGQEFCIKHILEDKNAPFKQCSYISTKNGKRCPNAAPKPEKKDGVSFCAEH [C1Y]	-0.802 ± 0.062
NAFTHRPCSHPRLEGQEFCIKHILEDKNAPFKQCSYISTKNGKRCPNAAPKPEKKDGVSFCAEH [C1N]	-0.615 ± 0.19
DAFTHRPCSHPRLEGQEFCIKHILEDKNAPFKQCSYISTKNGKRCPNAAPKPEKKDGVSFCAEH [C1D]	-0.896 ± 0.17
IAFTHRPCSHPRLEGQEFCIKHILEDKNAPFKQCSYISTKNGKRCPNAAPKPEKKDGVSFCAEH [C1I]	-0.287 ± 0.34
